# Source: article PMC12499412, “Engineering DNA Origami Captors for TGFβ1 Sequestration to Enhance Tumor Immune Modulation and Therapy”
# B1: Cy5-a'-Apt (ssDNA)
# DNA: TCGCTCGGCTTCACGAGATTCGTGTCGTTGTGTCCTGTACCCGCCTTGACCAGTCACTCTAGAGCATCCGGACTGTAGATGGAGTGTGGTGTGAAG
# modifications: phosphorothioates at A and C bases (positions marked * in Table S3)
# What was measured:
# IFN-γ = IFN-γ (human, UniProt P01579 24-166); experiment: MST; aptamer:protein 1:50; MST: 30 nM Cy5-a'-Apt final with 45 pM (4.5 pM in Fig S3 legend) to 1.5 uM protein, 37 °C, 2 h; specificity MST 5 nM aptamer, 0.25 uM protein; buffer, salt and; details: protein: commercial; chain copies: 2; label: 5'-Cy5; annealed 95 °C 5 min, 4 °C 30 min
# IFN-γ, sequence (P01579 24-166): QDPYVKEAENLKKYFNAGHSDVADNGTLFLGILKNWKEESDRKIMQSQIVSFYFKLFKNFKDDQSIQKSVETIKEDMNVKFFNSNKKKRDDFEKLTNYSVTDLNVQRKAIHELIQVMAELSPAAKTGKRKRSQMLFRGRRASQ
# TGFβ1 (active, mature) = TGFβ1 (active, mature) (human, UniProt P01137 279-390); experiment: MST; 37 °C, 2 h; MST: 30 nM Cy5-a'-Apt final with 45 pM (4.5 pM in Fig S3 legend) to 1.5 uM protein, 37 °C, 2 h; specificity MST 5 nM aptamer, 0.25 uM protein; buffer, salt and; details: protein: commercial; chain copies: 2; label: 5'-Cy5; annealed 95 °C 5 min, 4 °C 30 min
# TGFβ1 (active, mature), sequence (P01137 279-390): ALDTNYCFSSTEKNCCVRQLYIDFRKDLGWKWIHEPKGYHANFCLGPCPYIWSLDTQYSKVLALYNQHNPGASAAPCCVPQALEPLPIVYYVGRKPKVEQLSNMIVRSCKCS
binder,measurement,setting,value
B1,binding result,IFN-γ,no binding
same,Kd,"TGFβ1 (active, mature)",28 nM
